Results as given in a protein production outcome set (Wang et al. 2014).

Assay: label from the status in PepcDB records
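Further: failed if final PepcDB status was selected cloned or expressed and not failed if soluble or beyond.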

| Sequence | protein production |
| --- | --- |
| MEQFLDNIKDLEVTTVVRAQEALDKKETATFFIGRKTCPYCRKFAGTLSGVVAETKAHIYFINSEEPSQLNDLQAFRSRYGIPTVPGFVHITDGQINVRCDSSMSAQEIKDFAGL | not failed |
| ISEWARKEQAIRNSEANFRDIFASIKDGLLVLDEDNYICYANAQAVKLLNCTLEELVGTIGSPLEDTEFSLLVDDGTIYTVDVSVTEITWYGQTAKLVSLRDISDRKRMENQLRENQNKYYRLLENLD | failed |
| MNQLTAYTLRLGDNCLVLSQRLGEWCGHAPELEIDLALANIGLDLLGQARNFLSYAAELAGEGDEDTLAFTRDERQFSNLLLVEQPNGNFADTIARQYFIDAWHVALFTRLMESRDPQLAAISAKAIKEARYHLRFSRGWLERLGNGTDVSGQKMQQAINKLWRFTAELFDADEIDIALSEEGIAVDPRTLRAAWEAEVFAGINEATLNVPQEQAYRTGGKKGLHTEHLGPMLAEMQYLQRVLPGQQW | not failed |
| ESICLIGHSLGGDLARYFASEFEEVKKLILLDGGYLDLDKILPLDTELEETKNYIKSQIVSDLDVLTSKEKSEAKHWSENMEKAVRQSYHWNVEYNRYELAINYENIEAILRLRRKIQAFKREVGDTLFISPRYPNEATWREEALKELPDYFDTIFLENFGHELYTQAPKEIASLMNEWL | failed |
| MPETSSMLESVVAYLQQAEPSSVYAVLFLSAYFENVIPPIPGDVPIALAGYLLTFSHITFVAALFWSTIGSVAGFMTVFLLSRFLGLKLYAVGECEARHKFAQSIHKLFPPSEMEVVRQKFSGHGYLAVVVNRFLFGSRAVICIVAGMLHLKIPLVLAASFVSSLLWNILLLSTGYLLGSNWDKIGQYAVLYTAPFTILFTGFIVWKVVAYLKKRKQQADGA | failed |
| MLLEGLLFVLAAGIFTAIVCGFGTLPFFFVDEISDRVTVALWGLAGGIMLFASLFGFIFEGLRDGTVFEVGAGLVVGVVVVVVADRIITGYEFEPRDIPDADFRKLVLIVGVLTVHSFPEGVALGVAFADLGIEGDLVLAGLAIPGLAIFITAAISIQNIPEGLAVAIPLHTYGIANWKIFGWAVFSSIPQPIGAGIAYVFVTTAREFLPFGFGFASGAMIFLVLHDIFPEGLDHGSDLPGHGRRELLVGIAVGVAIMLPVMLLTE | failed |
| MLTLEIFRALLLGFTIGLTGALVPGPMLFATIELSLKKGWLAGPEVVFGHILVELVLSILILFGVASFIGSGAISAVSIIGGFSLTVFGLLTVKDAKTTASAGLSPETSGLKLTSNPVALGLITSVSNPYFWIWWLTAGSALVLKAYELGIIISIAYILGHWTADLSWFTAISGSFSRGKTLFSQQTHRYILYACGTFLIFFGLYFMFNYKGAAQLF | failed |
| MALDNAKTSQKLQSLAELDGKAPSHRNLNVQTWSTAEGAKVLFVEARELPMFDLRLIFAAGSSQDGNAPGVALLTNAMLNEGVAGKDVGAIAQGFEGLGADFGNGAYKDMAVASLRSLSAVDKREPALKLFAEVVGKPTFPADSLARIKNQMLAGFEYQKQNPGKLASLELMKRLYGTHPYAHASDGDAKSIPPITLAQLKAFHAKAYAAGNVVIALVGDLSRSDAEAIAAQVSAALPKGPALAKIEQPAEPKASIGHIEFPSSQTSLMLAQLGIDRDDPDYAAVSLGNQILGGGGFGTRLMSEVREKRGLTYGVYSGFTPMQARGPFMINLQTRAEMSEGTLKLVQDVFAEYLKNGPTQKELDDAKRELAGSFPLSTASNADIVGQLGAMGFYNLPLSYLEDFMRQSQELTVEQVKAAMNKHLNVDKMVIVSAGPTVAQKPLEHHHHHH | failed |
| MPGWHAGGKPACRVPLLTKTGRFKRPVFSSSLSATPRFVAALRSTLLYEGAQHMLKLFVRNLPPQTTEAGLKELFTGYGKVFELQLSRDMFTGKARGTASVSMEGHEARKAIEALDGSDYEGKTIYVALDKGPRSGGRGRR | failed |
| MRKPKITVIGGGTGSPVILKSLREKDVEIAAIVTVADDGGSSGELRKNMQQLTPPGDLRNVLVAMSDMPKFYEKVFQYRFSEDAGAFAGHPLGNLIIAGLSEMQGSTYNAMQLLSKFFHTTGKIYPSSDHPLTLHAVFQDGTEVAGESHIVDHRGIIDNVYVTNALNDDTPLASRRVVQTILESDMIVLGPGSLFTSILPNIVIKEIGRALLETKAEIAYVCNIMTQRGETEHFTDSDHVEVLHRHLGRPFIDTVLVNIEKVPQEYMNSNRFDEYLVQVEHDFVGLCKQVSRVISSNFLRLENGGAFHDGDLIVDELMRIIQVKK | not failed |
| MKKTGWGILGAVAAFTGYAYWSTKHLTVTDYEILSDKIPAEWDGATFVQLSDLHSASFGLYNNPLLSIVNELAPDAVFLTGDMIDGDESPFVTMAVVRKLAKEFPVFYVSGNHEGRSAFYEDFKADMEKHHVAVLENERYFLRKDGAAIMVAGVKDPRFVRDDWAEKELPKQVWEEEALKEALDEATANLSPDYFTILLAHRPEFWPLYQAYPVDLVLSGHAHGGQFRLPLTEGLFAPGQGFMPKWTAGLHSAGGKSLIVSRGLGNVTKLPRLFNDPEIIRITLKAKGDARENLEHHHHHH | failed |
| EWQHRGYGRELLAEAERIAREEFDAKKMLIISGVGVREYYRKFGYRKDGPYVSKRLDKRYADYKRTNRFDAELNT | failed |
| MIQSSLYRALNKGFDYQILACKDFKESELAKEVISYFKPNTKAILFPEFRAKKNDDLRSFFEEFLQLLGGLREFYQALENKQETIIIAPISALLHPLPKKELLESFKITLLEKYNLKDLKDKLFYYGYEILDLVEVEGEASFRGDIVDIYAPNSKAYRLSFFDTECESIKEFDPITQMSLKEDLLEIEIPPTLFSLDESSYKDLKTKVEQSPLNSFSKDLTSFGLWFLGEKAQDLLIVYKSIISPRALEEIQELASLNELDCERFKFLKVLENAQGYEDLEIHAHALEGFIALHSNHKITLLAPNKTILDNAISALDAGNMECVIAPFVLNFKTPDGIFISLNSFERKKKRQKSKLALNELNPGEWVVHDDYGVGVFSQLVQHSVLGSKRDFLEIAYLGEDKLLLPVENLHLIARYVAQSDSVPAKDRLGKGSFLKLKAKVRTKLLEIASKIIELAAERNLILGKKMDVHLAELEVFKSHAGFEYTSDQEKAIAEISKDLSSHRVMDRLLSGDVGFGKTEVAMHAIFCAFLNGFQSALVVPTTLLAHQHFETLRARFENFGVKVARLDRYASEKNKLLKAVELGQVDALIGTHAILGAKFKNLGLVVVDEEHKFGVKQKEALKELSKSVHFLSMSATPIPRTLNMALSQIKGISSLKTPPTDRKPSRTFLKEKNDELLKEIIYRELRRNGQIFYIHNHIASILKVKTKLEDLIPKLKIAILHSQINANESEEIMLEFAKGNYQVLLCTSIVESGIHLPNANTIIIDNAQNFGLADLHQLRGRVGRGKKEGFCYFLIEDQKSLNEQALKRLLALEKNSYLGSGESVAYHDLEIRGGGNLLGQDQSGHIKNIGYALYTRMLEDAIYELSGGKKRLEKSVEIQLGVSAFLNPELIASDSLRLDLYRRLSLCENTDEVGQIHEEIEDRFGKIDDLSAQFLQIITLKILANQLGIIKLSNFNQNITITYSDEKKESLKAPSKDDNDILETLLKHLRAQISLKRR | failed |
| MDIEIENHPLEPFLPANARLLMLGSFPPQKKRWSMDFYYPNLNNDMWRIVGLLFFNNKDYFLNETRKAFCRERIISFLNDKGIALFDTASAIRRLQDNASDKFLEVVQPTDISRLLGQLPECKAIVTTGQKATDTLRAQFEVEEPKVGDFSEFVFDGRPVRLYRMPSSSRAYPLALDKKAAAYRTMYQDLQMLNIELEHHHHHH | not failed |
| MRIGIISVGPGNIMNLYRGVKRASENFEDVSIELVESPRNDLYDLLFIPGVGHFGEGMRRLRENDLIDFVRKHVEDERYVVGVCLGMQLLFEESEEAPGVKGLSLIEGNVVKLRSRRLPHMGWNEVIFKDTFPNGYYYFVHTYRAVCEEEHVLGTTEYDGEIFPSAVRKGRILGFQFHPEKSSKIGRKLLEKVIECSLSRR | not failed |
| MSQNWNADYATLAKRGFMLGAGLFLLGIAGEVAGSAVLGTLPAWGDTLLVDMEMLGILVGLLSPLVFGVVMPLTE | failed |
| MARNSDNDMCKEERKRESFFKVLQRVDISSENMRALPYDFVRSFSNNELSRKMKIKARWGSSWEVEICKNPRFYFMEKSGWEKFVSDNALGASEFLTFTHKGNMRFTVNIFMQDGKEMLQPPQSMSFMASSRPPKREQGIPSLATTIAAESNGGGNYKRKLNFEKKKAEESHNSKRTDKVFSVQRESAGASSSSVAEFSMFIKKSYLIYMWFPKSVQSIHMPKQRTIFKIHHPNMKKSWNVVYVVSGTKSSFSAGWKGLAQEYPLAVGDTCKFSFIKQHELILFVSKP | failed |
